Consider one substance from patent US5997865.

The target in this test is c-kit (mouse) (UniProt P05532).

kit ligand: the expansion in cell number after 7 days of coculture on 7-4 stroma (AA4+ Kit+ Flk-2+ cells) (not stated (cell number, Table 2)) stood at 210.
